Experiment in all cases: SPR
In test [1] the target is wild Bactrian camel ACE2 extracellular domain (residues 1-740) fused with the Fc domain of mouse IgG (wild Bactrian camel).
The target of test [2] is pig ACE2 extracellular domain (residues 1-740) fused with the Fc domain of mouse IgG (pig) (UniProt K7GLM4).
Test [3] deals with little brown bat ACE2 extracellular domain (residues 1-740) fused with the Fc domain of mouse IgG (little brown bat) (UniProt G1PXH7).
Test [4] addresses fox ACE2 extracellular domain (residues 1-740) fused with the Fc domain of mouse IgG (fox).
The target in test [5] is cat ACE2 extracellular domain (residues 1-740) fused with the Fc domain of mouse IgG (cat) (UniProt Q56H28).
In test [6] the target is monkey ACE2 extracellular domain (residues 1-740) fused with the Fc domain of mouse IgG (monkey) (UniProt F7AH40).
Test [7] concerns the target goat ACE2 extracellular domain (residues 1-740) fused with the Fc domain of mouse IgG (goat).
Test [8] has as its target horse ACE2 extracellular domain (residues 1-740) fused with the Fc domain of mouse IgG (horse) (UniProt F6V9L3).
In test [9] the target is rabbit ACE2 extracellular domain (residues 1-740) fused with the Fc domain of mouse IgG (rabbit) (UniProt G1TEF4).
Test [10] deals with sheep ACE2 extracellular domain (residues 1-740) fused with the Fc domain of mouse IgG (sheep).
Test [11] addresses mink ACE2 extracellular domain (residues 1-740) fused with the Fc domain of mouse IgG (mink).
Test [12] deals with big-eared horseshoe bat ACE2 extracellular domain (residues 1-740) fused with the Fc domain of mouse IgG (big-eared horseshoe bat).
For test [13], the target named is bovine ACE2 extracellular domain (residues 1-740) fused with the Fc domain of mouse IgG (bovine) (UniProt Q58DD0).
Test [14] has as its target fulvous fruit bat ACE2 extracellular domain (residues 1-740) fused with the Fc domain of mouse IgG (fulvous fruit bat).
For test [15], the target named is alpaca ACE2 extracellular domain (residues 1-740) fused with the Fc domain of mouse IgG (alpaca).
In test [16] the target is raccoon dog ACE2 extracellular domain (residues 1-740) fused with the Fc domain of mouse IgG (raccoon dog) (UniProt B4XEP4).
In test [17] the target is dog ACE2 extracellular domain (residues 1-740) fused with the Fc domain of mouse IgG (dog).

On to “SARS-CoV-2 prototype RBD (residues 319-541) (from UniProt P0DTC2 319-541) (domain or fragment)”, for which the Kd in [1] stood at 104 nM; in test [2], 139 nM; in [3], 130 nM; in test [4] it was 56.2 nM; in test [5] it was 99 nM; in [6] it was 22 nM. Further, the Kd in [7] came out at 214 nM; in test [8], 221 nM; in test [9], 48.1 nM; in test [10] it was 174 nM; in test [11], 305 nM; in test [12], 677 nM. For the same substance, the Kd in test [13] was found to be 181 nM; in test [14] it was 157 nM; in test [15], 11800 nM; in test [16] it was 80 nM; in test [17] it was 101 nM.

Source of the values: PMC9274624.
